Starred links: 1 amine or outer side, 2 acyl side, 3 side chain; linkers in the order of their positions; H or OH if unused. Non-standard residues stand in square brackets, D forms with d. Groups on a side chain read outwards from the residue. *: point of attachment. γGlu = O=C(O)[C@H](CCC(=O)[*:2])N[*:1]; Palmitoyl = CCCCCCCCCCCCCCCC(=O)*; NMeS = CN[C@@H](CO)C(=O)O; Ac4c = NC1(C(=O)O)CCC1; Ac3c = NC1(C(=O)O)CC1
T1: endogenous GLP-1 receptor of a murine insulinoma cell line (murine, UniProt O35659 22-463)
T1 sequence (looked up): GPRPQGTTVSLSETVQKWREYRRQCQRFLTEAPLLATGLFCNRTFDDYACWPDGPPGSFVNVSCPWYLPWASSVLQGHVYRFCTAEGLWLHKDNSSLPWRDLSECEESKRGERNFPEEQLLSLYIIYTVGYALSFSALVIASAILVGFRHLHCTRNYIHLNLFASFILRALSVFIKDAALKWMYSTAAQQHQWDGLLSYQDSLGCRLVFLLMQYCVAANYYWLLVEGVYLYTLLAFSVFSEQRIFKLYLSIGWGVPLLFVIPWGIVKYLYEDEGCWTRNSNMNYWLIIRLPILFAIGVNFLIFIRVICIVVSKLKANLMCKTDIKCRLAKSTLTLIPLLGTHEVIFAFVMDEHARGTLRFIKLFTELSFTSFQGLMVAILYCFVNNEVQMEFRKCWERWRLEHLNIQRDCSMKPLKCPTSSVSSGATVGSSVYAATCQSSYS

B1: Compound 6: H-HAHGTFTSDYSKYLDS-K(Hexadecanoyl-isoGlu)-AAHDFVEWLLSA-NH2 (peptide)
peptide: H-HAHGTFTSDYSKYLDSK([γGlu-Palmitoyl])AAHDFVEWLLSA-NH2
SMILES: CCCCCCCCCCCCCCCC(=O)N[C@@H](CCC(=O)NCCCC[C@H](NC(=O)[C@H](CO)NC(=O)[C@H](CC(=O)O)NC(=O)[C@H](CC(C)C)NC(=O)[C@H](Cc1ccc(O)cc1)NC(=O)[C@H](CCCCN)NC(=O)[C@H](CO)NC(=O)[C@H](Cc1ccc(O)cc1)NC(=O)[C@H](CC(=O)O)NC(=O)[C@H](CO)NC(=O)[C@@H](NC(=O)[C@H](Cc1ccccc1)NC(=O)[C@@H](NC(=O)CNC(=O)[C@H](Cc1c[nH]cn1)NC(=O)[C@H](C)NC(=O)[C@@H](N)Cc1c[nH]cn1)[C@@H](C)O)[C@@H](C)O)C(=O)N[C@@H](C)C(=O)N[C@@H](C)C(=O)N[C@@H](Cc1c[nH]cn1)C(=O)N[C@@H](CC(=O)O)C(=O)N[C@@H](Cc1ccccc1)C(=O)N[C@H](C(=O)N[C@@H](CCC(=O)O)C(=O)N[C@@H](Cc1c[nH]c2ccccc12)C(=O)N[C@@H](CC(C)C)C(=O)N[C@@H](CC(C)C)C(=O)N[C@@H](CO)C(=O)N[C@@H](C)C(N)=O)C(C)C)C(=O)O
B2: Compound 7: H-H-DAla-HGTFTSDYSKYLDS-K(Hexadecanoyl-isoGlu)-AAHDFVEWLLSA-NH2 (peptide)
peptide: H-H[dA]HGTFTSDYSKYLDSK([γGlu-Palmitoyl])AAHDFVEWLLSA-NH2
SMILES: CCCCCCCCCCCCCCCC(=O)N[C@@H](CCC(=O)NCCCC[C@H](NC(=O)[C@H](CO)NC(=O)[C@H](CC(=O)O)NC(=O)[C@H](CC(C)C)NC(=O)[C@H](Cc1ccc(O)cc1)NC(=O)[C@H](CCCCN)NC(=O)[C@H](CO)NC(=O)[C@H](Cc1ccc(O)cc1)NC(=O)[C@H](CC(=O)O)NC(=O)[C@H](CO)NC(=O)[C@@H](NC(=O)[C@H](Cc1ccccc1)NC(=O)[C@@H](NC(=O)CNC(=O)[C@H](Cc1c[nH]cn1)NC(=O)[C@@H](C)NC(=O)[C@@H](N)Cc1c[nH]cn1)[C@@H](C)O)[C@@H](C)O)C(=O)N[C@@H](C)C(=O)N[C@@H](C)C(=O)N[C@@H](Cc1c[nH]cn1)C(=O)N[C@@H](CC(=O)O)C(=O)N[C@@H](Cc1ccccc1)C(=O)N[C@H](C(=O)N[C@@H](CCC(=O)O)C(=O)N[C@@H](Cc1c[nH]c2ccccc12)C(=O)N[C@@H](CC(C)C)C(=O)N[C@@H](CC(C)C)C(=O)N[C@@H](CO)C(=O)N[C@@H](C)C(N)=O)C(C)C)C(=O)O
B3: Compound 8: H-H-Ac3c-HGTFTSDYSKYLDS-K(Hexadecanoyl-isoGlu)-AAHDFVEWLLSA-NH2 (peptide)
peptide: H-H[Ac3c]HGTFTSDYSKYLDSK([γGlu-Palmitoyl])AAHDFVEWLLSA-NH2
SMILES: CCCCCCCCCCCCCCCC(=O)N[C@@H](CCC(=O)NCCCC[C@H](NC(=O)[C@H](CO)NC(=O)[C@H](CC(=O)O)NC(=O)[C@H](CC(C)C)NC(=O)[C@H](Cc1ccc(O)cc1)NC(=O)[C@H](CCCCN)NC(=O)[C@H](CO)NC(=O)[C@H](Cc1ccc(O)cc1)NC(=O)[C@H](CC(=O)O)NC(=O)[C@H](CO)NC(=O)[C@@H](NC(=O)[C@H](Cc1ccccc1)NC(=O)[C@@H](NC(=O)CNC(=O)[C@H](Cc1c[nH]cn1)NC(=O)C1(NC(=O)[C@@H](N)Cc2c[nH]cn2)CC1)[C@@H](C)O)[C@@H](C)O)C(=O)N[C@@H](C)C(=O)N[C@@H](C)C(=O)N[C@@H](Cc1c[nH]cn1)C(=O)N[C@@H](CC(=O)O)C(=O)N[C@@H](Cc1ccccc1)C(=O)N[C@H](C(=O)N[C@@H](CCC(=O)O)C(=O)N[C@@H](Cc1c[nH]c2ccccc12)C(=O)N[C@@H](CC(C)C)C(=O)N[C@@H](CC(C)C)C(=O)N[C@@H](CO)C(=O)N[C@@H](C)C(N)=O)C(C)C)C(=O)O
B4: Compound 9: H-H-Ac4c-HGTFTSDYSKYLDS-K(Hexadecanoyl-isoGlu)-AAHDFVEWLLSA-NH2 (peptide)
peptide: H-H[Ac4c]HGTFTSDYSKYLDSK([γGlu-Palmitoyl])AAHDFVEWLLSA-NH2
SMILES: CCCCCCCCCCCCCCCC(=O)N[C@@H](CCC(=O)NCCCC[C@H](NC(=O)[C@H](CO)NC(=O)[C@H](CC(=O)O)NC(=O)[C@H](CC(C)C)NC(=O)[C@H](Cc1ccc(O)cc1)NC(=O)[C@H](CCCCN)NC(=O)[C@H](CO)NC(=O)[C@H](Cc1ccc(O)cc1)NC(=O)[C@H](CC(=O)O)NC(=O)[C@H](CO)NC(=O)[C@@H](NC(=O)[C@H](Cc1ccccc1)NC(=O)[C@@H](NC(=O)CNC(=O)[C@H](Cc1c[nH]cn1)NC(=O)C1(NC(=O)[C@@H](N)Cc2c[nH]cn2)CCC1)[C@@H](C)O)[C@@H](C)O)C(=O)N[C@@H](C)C(=O)N[C@@H](C)C(=O)N[C@@H](Cc1c[nH]cn1)C(=O)N[C@@H](CC(=O)O)C(=O)N[C@@H](Cc1ccccc1)C(=O)N[C@H](C(=O)N[C@@H](CCC(=O)O)C(=O)N[C@@H](Cc1c[nH]c2ccccc12)C(=O)N[C@@H](CC(C)C)C(=O)N[C@@H](CC(C)C)C(=O)N[C@@H](CO)C(=O)N[C@@H](C)C(N)=O)C(C)C)C(=O)O
B5: Compound 10: H-H-Abu-QGTFTSDYSKYLDE-K(Hexadecanoyl-isoGlu)-AAKDFIEWLESA-NH2 (peptide)
peptide: HTQGTFTSDYSKYLDEKAAKDFIEWLESA
modifications: position 2 is Abu ((S)-2-aminobutyric acid); Lys17 side chain conjugated to hexadecanoyl-isoGlu; C-terminal amide (NH2)
B6: Compound 13: H-HPQGTFTSDYSKYLDE-K(Hexadecanoyl-isoGlu)-AAKDFIEWLESA-NH2 (peptide)
peptide: H-HPQGTFTSDYSKYLDEK([γGlu-Palmitoyl])AAKDFIEWLESA-NH2
SMILES: CCCCCCCCCCCCCCCC(=O)N[C@@H](CCC(=O)NCCCC[C@H](NC(=O)[C@H](CCC(=O)O)NC(=O)[C@H](CC(=O)O)NC(=O)[C@H](CC(C)C)NC(=O)[C@H](Cc1ccc(O)cc1)NC(=O)[C@H](CCCCN)NC(=O)[C@H](CO)NC(=O)[C@H](Cc1ccc(O)cc1)NC(=O)[C@H](CC(=O)O)NC(=O)[C@H](CO)NC(=O)[C@@H](NC(=O)[C@H](Cc1ccccc1)NC(=O)[C@@H](NC(=O)CNC(=O)[C@H](CCC(N)=O)NC(=O)[C@@H]1CCCN1C(=O)[C@@H](N)Cc1c[nH]cn1)[C@@H](C)O)[C@@H](C)O)C(=O)N[C@@H](C)C(=O)N[C@@H](C)C(=O)N[C@@H](CCCCN)C(=O)N[C@@H](CC(=O)O)C(=O)N[C@@H](Cc1ccccc1)C(=O)N[C@H](C(=O)N[C@@H](CCC(=O)O)C(=O)N[C@@H](Cc1c[nH]c2ccccc12)C(=O)N[C@@H](CC(C)C)C(=O)N[C@@H](CCC(=O)O)C(=O)N[C@@H](CO)C(=O)N[C@@H](C)C(N)=O)[C@@H](C)CC)C(=O)O
B7: Compound 14: H-H-Ac4c-QGTFTSDYSKYLDE-K(Hexadecanoyl-isoGlu)-AAKDFIEWLESA-NH2 (peptide)
peptide: H-H[Ac4c]QGTFTSDYSKYLDEK([γGlu-Palmitoyl])AAKDFIEWLESA-NH2
SMILES: CCCCCCCCCCCCCCCC(=O)N[C@@H](CCC(=O)NCCCC[C@H](NC(=O)[C@H](CCC(=O)O)NC(=O)[C@H](CC(=O)O)NC(=O)[C@H](CC(C)C)NC(=O)[C@H](Cc1ccc(O)cc1)NC(=O)[C@H](CCCCN)NC(=O)[C@H](CO)NC(=O)[C@H](Cc1ccc(O)cc1)NC(=O)[C@H](CC(=O)O)NC(=O)[C@H](CO)NC(=O)[C@@H](NC(=O)[C@H](Cc1ccccc1)NC(=O)[C@@H](NC(=O)CNC(=O)[C@H](CCC(N)=O)NC(=O)C1(NC(=O)[C@@H](N)Cc2c[nH]cn2)CCC1)[C@@H](C)O)[C@@H](C)O)C(=O)N[C@@H](C)C(=O)N[C@@H](C)C(=O)N[C@@H](CCCCN)C(=O)N[C@@H](CC(=O)O)C(=O)N[C@@H](Cc1ccccc1)C(=O)N[C@H](C(=O)N[C@@H](CCC(=O)O)C(=O)N[C@@H](Cc1c[nH]c2ccccc12)C(=O)N[C@@H](CC(C)C)C(=O)N[C@@H](CCC(=O)O)C(=O)N[C@@H](CO)C(=O)N[C@@H](C)C(N)=O)[C@@H](C)CC)C(=O)O
B8: Compound 2: H-H-NMeSer-QGTFTSDYSKYLDS-K(Hexadecanoyl-isoGlu)-AAHDFVEWLLSA-NH2 (peptide)
peptide: H-H[NMeS]QGTFTSDYSKYLDSK([γGlu-Palmitoyl])AAHDFVEWLLSA-NH2
SMILES: CCCCCCCCCCCCCCCC(=O)N[C@@H](CCC(=O)NCCCC[C@H](NC(=O)[C@H](CO)NC(=O)[C@H](CC(=O)O)NC(=O)[C@H](CC(C)C)NC(=O)[C@H](Cc1ccc(O)cc1)NC(=O)[C@H](CCCCN)NC(=O)[C@H](CO)NC(=O)[C@H](Cc1ccc(O)cc1)NC(=O)[C@H](CC(=O)O)NC(=O)[C@H](CO)NC(=O)[C@@H](NC(=O)[C@H](Cc1ccccc1)NC(=O)[C@@H](NC(=O)CNC(=O)[C@H](CCC(N)=O)NC(=O)[C@H](CO)N(C)C(=O)[C@@H](N)Cc1c[nH]cn1)[C@@H](C)O)[C@@H](C)O)C(=O)N[C@@H](C)C(=O)N[C@@H](C)C(=O)N[C@@H](Cc1c[nH]cn1)C(=O)N[C@@H](CC(=O)O)C(=O)N[C@@H](Cc1ccccc1)C(=O)N[C@H](C(=O)N[C@@H](CCC(=O)O)C(=O)N[C@@H](Cc1c[nH]c2ccccc12)C(=O)N[C@@H](CC(C)C)C(=O)N[C@@H](CC(C)C)C(=O)N[C@@H](CO)C(=O)N[C@@H](C)C(N)=O)C(C)C)C(=O)O

biological target: T1, endogenous GLP-1 receptor of a murine …; test: cell-based or functional assay

Binder	EC50 [nM] (cAMP in murine insulinoma cell line)
B1	0.4 nM
B2	0.3 nM
B3	0.24 nM
B4	0.21 nM
B5	0.09 nM
B6	0.14 nM
B7	0.13 nM
B8	0.52 nM

biological target: endogenous glucagon receptor of primary rat hepatocytes (rat, UniProt P30082 27-485); test: cell-based or functional assay
Sequence (P30082 27-485): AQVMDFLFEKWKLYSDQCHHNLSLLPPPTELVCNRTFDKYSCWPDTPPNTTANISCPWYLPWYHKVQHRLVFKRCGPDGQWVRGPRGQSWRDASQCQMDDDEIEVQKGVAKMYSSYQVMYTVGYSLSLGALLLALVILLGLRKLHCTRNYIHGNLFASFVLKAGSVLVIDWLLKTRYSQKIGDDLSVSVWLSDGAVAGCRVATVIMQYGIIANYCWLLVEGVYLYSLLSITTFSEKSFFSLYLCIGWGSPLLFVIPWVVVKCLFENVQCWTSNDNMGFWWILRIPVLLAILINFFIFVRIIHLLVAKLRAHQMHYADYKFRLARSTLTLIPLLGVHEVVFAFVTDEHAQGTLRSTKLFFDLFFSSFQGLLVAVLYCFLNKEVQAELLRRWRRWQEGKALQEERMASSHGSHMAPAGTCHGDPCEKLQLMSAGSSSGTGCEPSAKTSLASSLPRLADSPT

Binder	EC50 [nM] (inhibition of glycogen synthesis rate in primary rat hepatocytes)
B1	0.87 nM
B2	0.28 nM
B3	1.18 nM
B4	0.07 nM
B5	2.75 nM
B6	4 nM
B7	0.06 nM
B8	5.4 nM

biological target: human glucagon-like peptide 1 receptor (GLP-1R) (human, UniProt P43220 24-463); test: cell-based or functional assay

Binder	EC50 hGLP-1R CHO-K1 [nM] (cAMP, AlphaScreen)
B1	0.62 nM
B2	0.35 nM
B3	0.24 nM
B4	0.33 nM
B5	0.27 nM
B6	0.21 nM
B7	0.68 nM
B8	0.92 nM

biological target: human glucagon receptor (Glucagon-R) (human, UniProt P47871 26-477); test: cell-based or functional assay
Sequence (P47871 26-477): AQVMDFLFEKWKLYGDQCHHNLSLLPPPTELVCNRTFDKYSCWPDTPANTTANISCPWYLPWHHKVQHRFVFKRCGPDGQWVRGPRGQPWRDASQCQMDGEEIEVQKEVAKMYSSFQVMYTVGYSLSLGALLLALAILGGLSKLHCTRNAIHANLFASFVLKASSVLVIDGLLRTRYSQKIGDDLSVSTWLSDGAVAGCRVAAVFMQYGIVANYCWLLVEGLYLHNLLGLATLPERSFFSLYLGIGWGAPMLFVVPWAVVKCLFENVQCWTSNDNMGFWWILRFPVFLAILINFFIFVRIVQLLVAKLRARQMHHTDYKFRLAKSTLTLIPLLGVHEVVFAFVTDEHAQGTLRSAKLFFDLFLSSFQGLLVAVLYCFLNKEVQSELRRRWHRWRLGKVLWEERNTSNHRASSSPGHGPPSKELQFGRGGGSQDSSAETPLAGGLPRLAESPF

Binder	EC50 hGCGR CHO-K1 [nM] (cAMP, AlphaScreen)
B1	0.83 nM
B2	0.6 nM
B3	1.82 nM
B4	0.2 nM
B5	0.1 nM
B6	3.19 nM
B7	18.3 nM
B8	0.24 nM
